The target of assay [1] is T1, LINGO-Fc (human, UniProt Q96FE5 40-538, limits assumed).
T1 construct: not shown: Fc part
T1 sequence: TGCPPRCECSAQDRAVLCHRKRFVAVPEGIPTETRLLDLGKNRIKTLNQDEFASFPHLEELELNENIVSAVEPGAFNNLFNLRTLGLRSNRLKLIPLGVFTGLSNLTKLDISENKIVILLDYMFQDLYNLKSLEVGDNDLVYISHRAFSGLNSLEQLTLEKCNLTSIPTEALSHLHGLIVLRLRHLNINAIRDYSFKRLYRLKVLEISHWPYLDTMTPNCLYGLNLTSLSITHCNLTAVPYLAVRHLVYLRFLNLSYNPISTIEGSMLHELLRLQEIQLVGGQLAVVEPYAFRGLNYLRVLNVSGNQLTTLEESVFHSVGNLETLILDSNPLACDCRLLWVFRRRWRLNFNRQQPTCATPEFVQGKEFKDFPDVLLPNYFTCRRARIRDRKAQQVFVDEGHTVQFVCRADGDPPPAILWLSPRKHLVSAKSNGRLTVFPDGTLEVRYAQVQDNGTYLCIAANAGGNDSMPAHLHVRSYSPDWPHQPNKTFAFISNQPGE
Kind of assay: direct ELISA on LINGO-Fc; half-maximal concentration relative to Li33.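 Further: direct binding ELISA on plates coated with LINGO-Fc, concentration giving half of saturating binding, expressed as a ratio to the same value for the comparator.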

Assay [2] addresses T1, LINGO-Fc. Briefly: direct ELISA on LINGO-Fc; OD450 at saturation relative to Li33.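 Further: binding to plate-coated LINGO-Fc read by OD450, with the value at maximal saturation divided by the corresponding Li33 value.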
Protocol: A direct binding ELISA assay was performed using LINGO-Fc coated plates. The half maximal concentration that gave 50% saturation of binding was measured and is reported as a ratio of the same measurement for Li33. In addition, the OD450 for maximal saturation value was measured and is reported as a ratio of the same measurement for Li33.

B1: Li33 variant I57N (SEQ ID NO:161) (antibody, V domains shown)
VH: EVQLLESGGGLVQPGGSLRLSCAASGFTFSIYPMFWVRQAPGKGLEWVSWIGPSGGNTKYADSVKGRFTISRDNSKNTLYLQMNSLRAEDTATYYCAREGHNDWYFDLWGRGTLVTVSS
VL: DIQMTQSPGTLSLSPGERATLSCRASQSVSSYLAWYQQKPGQAPRLLIYDASNRATGIPARFSGSGSGTEFTLTISSLQSEDFAVYYCQQYDKWPLTFGGGTKVEIKR
notes: unchanged chain from WT Li33
As to B1, in assay [1], the “ELISA Ratio” value was 2.9 ratio. In addition, in assay [2], the “Plateau Ratio” value came to 1.1 ratio.

B2: Li33 variant I57S (SEQ ID NO:183) (antibody, V domains shown)
VH: EVQLLESGGGLVQPGGSLRLSCAASGFTFSIYPMFWVRQAPGKGLEWVSWIGPSGGSTKYADSVKGRFTISRDNSKNTLYLQMNSLRAEDTATYYCAREGHNDWYFDLWGRGTLVTVSS
VL: DIQMTQSPGTLSLSPGERATLSCRASQSVSSYLAWYQQKPGQAPRLLIYDASNRATGIPARFSGSGSGTEFTLTISSLQSEDFAVYYCQQYDKWPLTFGGGTKVEIKR
notes: unchanged chain from WT Li33
As for B2, the “ELISA Ratio” value in assay [1] was found to be 0.6 ratio. Also, in assay [2], the “Plateau Ratio” value was 0.96 ratio.

B3: Li33 variant W50M (SEQ ID NO:150) (antibody, V domains shown)
VH: EVQLLESGGGLVQPGGSLRLSCAASGFTFSIYPMFWVRQAPGKGLEWVSMIGPSGGITKYADSVKGRFTISRDNSKNTLYLQMNSLRAEDTATYYCAREGHNDWYFDLWGRGTLVTVSS
VL: DIQMTQSPGTLSLSPGERATLSCRASQSVSSYLAWYQQKPGQAPRLLIYDASNRATGIPARFSGSGSGTEFTLTISSLQSEDFAVYYCQQYDKWPLTFGGGTKVEIKR
notes: unchanged chain from WT Li33
Regarding B3, in assay [1], the “ELISA Ratio” value is 2 ratio. Further, the “Plateau Ratio” value in assay [2] amounted to 0.93 ratio.

B4: Li33 variant W50L (SEQ ID NO:149) (antibody, V domains shown)
VH: EVQLLESGGGLVQPGGSLRLSCAASGFTFSIYPMFWVRQAPGKGLEWVSLIGPSGGITKYADSVKGRFTISRDNSKNTLYLQMNSLRAEDTATYYCAREGHNDWYFDLWGRGTLVTVSS
VL: DIQMTQSPGTLSLSPGERATLSCRASQSVSSYLAWYQQKPGQAPRLLIYDASNRATGIPARFSGSGSGTEFTLTISSLQSEDFAVYYCQQYDKWPLTFGGGTKVEIKR
notes: unchanged chain from WT Li33
With B4, the “ELISA Ratio” value in assay [1] came to 1.8 ratio. Moreover, the “Plateau Ratio” value in assay [2] is 1 ratio.

B5: Li33 variant P53W (SEQ ID NO:154) (antibody, V domains shown)
VH: EVQLLESGGGLVQPGGSLRLSCAASGFTFSIYPMFWVRQAPGKGLEWVSWIGWSGGITKYADSVKGRFTISRDNSKNTLYLQMNSLRAEDTATYYCAREGHNDWYFDLWGRGTLVTVSS
VL: DIQMTQSPGTLSLSPGERATLSCRASQSVSSYLAWYQQKPGQAPRLLIYDASNRATGIPARFSGSGSGTEFTLTISSLQSEDFAVYYCQQYDKWPLTFGGGTKVEIKR
notes: unchanged chain from WT Li33
B5: the “ELISA Ratio” value in assay [1] is 3.9 ratio. For the same molecule, the “Plateau Ratio” value in assay [2] came out at 0.55 ratio.

B6: Li33 variant I57T (SEQ ID NO:186) (antibody, V domains shown)
VH: EVQLLESGGGLVQPGGSLRLSCAASGFTFSIYPMFWVRQAPGKGLEWVSWIGPSGGTTKYADSVKGRFTISRDNSKNTLYLQMNSLRAEDTATYYCAREGHNDWYFDLWGRGTLVTVSS
VL: DIQMTQSPGTLSLSPGERATLSCRASQSVSSYLAWYQQKPGQAPRLLIYDASNRATGIPARFSGSGSGTEFTLTISSLQSEDFAVYYCQQYDKWPLTFGGGTKVEIKR
notes: unchanged chain from WT Li33
As to B6, the “ELISA Ratio” value in assay [1] was 1.1 ratio. Besides, the “Plateau Ratio” value in assay [2] worked out at 1.01 ratio.

B7: Li33 variant P53S (SEQ ID NO:152) (antibody, V domains shown)
VH: EVQLLESGGGLVQPGGSLRLSCAASGFTFSIYPMFWVRQAPGKGLEWVSWIGSSGGITKYADSVKGRFTISRDNSKNTLYLQMNSLRAEDTATYYCAREGHNDWYFDLWGRGTLVTVSS
VL: DIQMTQSPGTLSLSPGERATLSCRASQSVSSYLAWYQQKPGQAPRLLIYDASNRATGIPARFSGSGSGTEFTLTISSLQSEDFAVYYCQQYDKWPLTFGGGTKVEIKR
notes: unchanged chain from WT Li33
For B7, the “ELISA Ratio” value in assay [1] was determined as 2.5 ratio. Moreover, in assay [2], the “Plateau Ratio” value came out at 1.43 ratio.

B8: Li33 variant P53L (SEQ ID NO:151) (antibody, V domains shown)
VH: EVQLLESGGGLVQPGGSLRLSCAASGFTFSIYPMFWVRQAPGKGLEWVSWIGLSGGITKYADSVKGRFTISRDNSKNTLYLQMNSLRAEDTATYYCAREGHNDWYFDLWGRGTLVTVSS
VL: DIQMTQSPGTLSLSPGERATLSCRASQSVSSYLAWYQQKPGQAPRLLIYDASNRATGIPARFSGSGSGTEFTLTISSLQSEDFAVYYCQQYDKWPLTFGGGTKVEIKR
notes: unchanged chain from WT Li33
Regarding B8, in assay [1], the “ELISA Ratio” value was 2.2 ratio. Besides, in assay [2], the “Plateau Ratio” value was 1.13 ratio.

B9: Li33 variant P53T (SEQ ID NO:153) (antibody, V domains shown)
VH: EVQLLESGGGLVQPGGSLRLSCAASGFTFSIYPMFWVRQAPGKGLEWVSWIGTSGGITKYADSVKGRFTISRDNSKNTLYLQMNSLRAEDTATYYCAREGHNDWYFDLWGRGTLVTVSS
VL: DIQMTQSPGTLSLSPGERATLSCRASQSVSSYLAWYQQKPGQAPRLLIYDASNRATGIPARFSGSGSGTEFTLTISSLQSEDFAVYYCQQYDKWPLTFGGGTKVEIKR
notes: unchanged chain from WT Li33
With B9, the “ELISA Ratio” value in assay [1] was 2.1 ratio. For the same molecule, the “Plateau Ratio” value in assay [2] was 0.85 ratio.

B10: Li33 variant W50D (SEQ ID NO:175) (antibody, V domains shown)
VH: EVQLLESGGGLVQPGGSLRLSCAASGFTFSIYPMFWVRQAPGKGLEWVSDIGPSGGITKYADSVKGRFTISRDNSKNTLYLQMNSLRAEDTATYYCAREGHNDWYFDLWGRGTLVTVSS
VL: DIQMTQSPGTLSLSPGERATLSCRASQSVSSYLAWYQQKPGQAPRLLIYDASNRATGIPARFSGSGSGTEFTLTISSLQSEDFAVYYCQQYDKWPLTFGGGTKVEIKR
notes: unchanged chain from WT Li33
As for B10, the “ELISA Ratio” value in assay [1] is 4 ratio. Moreover, the “Plateau Ratio” value in assay [2] turned out to be 0.71 ratio.

B11: Li33 variant W50I (SEQ ID NO:174) (antibody, V domains shown)
VH: EVQLLESGGGLVQPGGSLRLSCAASGFTFSIYPMFWVRQAPGKGLEWVSIIGPSGGITKYADSVKGRFTISRDNSKNTLYLQMNSLRAEDTATYYCAREGHNDWYFDLWGRGTLVTVSS
VL: DIQMTQSPGTLSLSPGERATLSCRASQSVSSYLAWYQQKPGQAPRLLIYDASNRATGIPARFSGSGSGTEFTLTISSLQSEDFAVYYCQQYDKWPLTFGGGTKVEIKR
notes: unchanged chain from WT Li33
Regarding B11, in assay [1], the “ELISA Ratio” value came out at 93.5 ratio. Besides, in assay [2], the “Plateau Ratio” value is 12.4 ratio.

B12: Li33 variant W50H (SEQ ID NO:147) (antibody, V domains shown)
VH: EVQLLESGGGLVQPGGSLRLSCAASGFTFSIYPMFWVRQAPGKGLEWVSHIGPSGGITKYADSVKGRFTISRDNSKNTLYLQMNSLRAEDTATYYCAREGHNDWYFDLWGRGTLVTVSS
VL: DIQMTQSPGTLSLSPGERATLSCRASQSVSSYLAWYQQKPGQAPRLLIYDASNRATGIPARFSGSGSGTEFTLTISSLQSEDFAVYYCQQYDKWPLTFGGGTKVEIKR
notes: unchanged chain from WT Li33
With B12, the “ELISA Ratio” value in assay [1] was 1.3 ratio. Also, the “Plateau Ratio” value in assay [2] stood at 0.87 ratio.

B13: Li33 variant W94D (SEQ ID NO:166) (antibody, V domains shown)
VH: EVQLLESGGGLVQPGGSLRLSCAASGFTFSIYPMFWVRQAPGKGLEWVSWIGPSGGITKYADSVKGRFTISRDNSKNTLYLQMNSLRAEDTATYYCAREGHNDWYFDLWGRGTLVTVSS
VL: DIQMTQSPGTLSLSPGERATLSCRASQSVSSYLAWYQQKPGQAPRLLIYDASNRATGIPARFSGSGSGTEFTLTISSLQSEDFAVYYCQQYDKDPLTFGGGTKVEIKR
notes: unchanged chain from WT Li33
B13: the “ELISA Ratio” value in assay [1] turned out to be 1.5 ratio. Further, the “Plateau Ratio” value in assay [2] turned out to be 0.87 ratio.

B14: Li33 variant I57V (SEQ ID NO:185) (antibody, V domains shown)
VH: EVQLLESGGGLVQPGGSLRLSCAASGFTFSIYPMFWVRQAPGKGLEWVSWIGPSGGVTKYADSVKGRFTISRDNSKNTLYLQMNSLRAEDTATYYCAREGHNDWYFDLWGRGTLVTVSS
VL: DIQMTQSPGTLSLSPGERATLSCRASQSVSSYLAWYQQKPGQAPRLLIYDASNRATGIPARFSGSGSGTEFTLTISSLQSEDFAVYYCQQYDKWPLTFGGGTKVEIKR
notes: unchanged chain from WT Li33
In the case of B14, the “ELISA Ratio” value in assay [1] was 1.4 ratio. For the same molecule, the “Plateau Ratio” value in assay [2] is 1.13 ratio.

B15: Li33 variant I57P (SEQ ID NO:184) (antibody, V domains shown)
VH: EVQLLESGGGLVQPGGSLRLSCAASGFTFSIYPMFWVRQAPGKGLEWVSWIGPSGGPTKYADSVKGRFTISRDNSKNTLYLQMNSLRAEDTATYYCAREGHNDWYFDLWGRGTLVTVSS
VL: DIQMTQSPGTLSLSPGERATLSCRASQSVSSYLAWYQQKPGQAPRLLIYDASNRATGIPARFSGSGSGTEFTLTISSLQSEDFAVYYCQQYDKWPLTFGGGTKVEIKR
notes: unchanged chain from WT Li33
For B15, the “ELISA Ratio” value in assay [1] amounted to 0.6 ratio. Also, the “Plateau Ratio” value in assay [2] is 1.27 ratio.

B16: Li33 variant W50F (SEQ ID NO:148) (antibody, V domains shown)
VH: EVQLLESGGGLVQPGGSLRLSCAASGFTFSIYPMFWVRQAPGKGLEWVSFIGPSGGITKYADSVKGRFTISRDNSKNTLYLQMNSLRAEDTATYYCAREGHNDWYFDLWGRGTLVTVSS
VL: DIQMTQSPGTLSLSPGERATLSCRASQSVSSYLAWYQQKPGQAPRLLIYDASNRATGIPARFSGSGSGTEFTLTISSLQSEDFAVYYCQQYDKWPLTFGGGTKVEIKR
notes: unchanged chain from WT Li33
As for B16, the “ELISA Ratio” value in assay [1] amounted to 1.2 ratio. For the same molecule, the “Plateau Ratio” value in assay [2] was 0.86 ratio.

B17: Li33 variant P53G (SEQ ID NO:180) (antibody, V domains shown)
VH: EVQLLESGGGLVQPGGSLRLSCAASGFTFSIYPMFWVRQAPGKGLEWVSWIGGSGGITKYADSVKGRFTISRDNSKNTLYLQMNSLRAEDTATYYCAREGHNDWYFDLWGRGTLVTVSS
VL: DIQMTQSPGTLSLSPGERATLSCRASQSVSSYLAWYQQKPGQAPRLLIYDASNRATGIPARFSGSGSGTEFTLTISSLQSEDFAVYYCQQYDKWPLTFGGGTKVEIKR
notes: unchanged chain from WT Li33
Turning to B17, the “ELISA Ratio” value in assay [1] worked out at 3.1 ratio. In assay [2], the “Plateau Ratio” value was 0.83 ratio.

B18: Li33 variant W94A (SEQ ID NO:165) (antibody, V domains shown)
VH: EVQLLESGGGLVQPGGSLRLSCAASGFTFSIYPMFWVRQAPGKGLEWVSWIGPSGGITKYADSVKGRFTISRDNSKNTLYLQMNSLRAEDTATYYCAREGHNDWYFDLWGRGTLVTVSS
VL: DIQMTQSPGTLSLSPGERATLSCRASQSVSSYLAWYQQKPGQAPRLLIYDASNRATGIPARFSGSGSGTEFTLTISSLQSEDFAVYYCQQYDKAPLTFGGGTKVEIKR
notes: unchanged chain from WT Li33
As for B18, the “ELISA Ratio” value in assay [1] amounted to 1.6 ratio. Also, the “Plateau Ratio” value in assay [2] came out at 0.91 ratio.

(Values after patent publication US20130323786A1 (Biogen, published 2013).)
